Measurements as given in paper PMC6057844 (Biochemical and biophysical research communications, 2018).

Target: the molecule itself

B1: Drp1 in HD mouse striatal cells (natural protein, UniProt Q8K1M6 1-736, looked up)
chain: MEALIPVINKLQDVFNTVGADIIQLPQIVVVGTQSSGKSSVLESLVGRDLLPRGTGVVTRRPLILQLVHVSPEDKRKTTGEENGVEAEEWGKFLHTKNKLYTDFDEIRQEIENETERISGNNKGVSPEPIHLKVFSPNVVNLTLVDLPGMTKVPVGDQPKDIELQIRELILRFISNPNSIILAVTAANTDMATSEALKISREVDPDGRRTLAVITKLDLMDAGTDAMDVLMGRVIPVKLGIIGVVNRSQLDINNKKSVTDSIRDEYAFLQKKYPSLANRNGTKYLARTLNRLLMHHIRDCLPELKTRINVLAAQYQSLLNSYGEPVDDKSATLLQLITKFATEYCNTIEGTAKYIETSELCGGARICYIFHETFGRTLESVDPLGGLNTIDILTAIRNATGPRPALFVPEVSFELLVKRQIKRLEEPSLRCVELVHEEMQRIIQHCSNYSTQELLRFPKLHDAIVEVVTCLLRKRLPVTNEMVHNLVAIELAYINTKHPDFADACGLMNNNIEEQRRNRLARELPSAGSRDKSSKVPSALAPASQEPPPAASAEADGKLIQDNRRETKNVPSAGGGIGDGGQEPTTGNWRGMLKTSKAEELLAEEKSKPIPIMPASPQKGHAVNLLDVPVPVARKLSAREQRDCEVIERLIKSYFLIVRKNIQDSVPKAVMHFLVNHVKDTLQSELVGQLYKSSLLDDLLTESEDMAQRRKEAADMLKALQGASQIIAEIRETHLW
Question: How did the “stoichiometry N” value turn out when B1 was run?
Answer: 4
